Test results reported in patent US20090060924A1 (Eli Lilly, published 2009).

T1: human sclerostin (human, UniProt Q9BQB4 24-213)
T1 sequence: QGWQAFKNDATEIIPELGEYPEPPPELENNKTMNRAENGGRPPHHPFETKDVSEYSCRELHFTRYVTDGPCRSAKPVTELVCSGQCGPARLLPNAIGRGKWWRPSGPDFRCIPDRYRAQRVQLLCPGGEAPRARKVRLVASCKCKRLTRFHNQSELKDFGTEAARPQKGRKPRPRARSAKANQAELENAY

T2: rat sclerostin (rat, UniProt Q99P67 24-213, limits assumed)
T2 sequence (looked up): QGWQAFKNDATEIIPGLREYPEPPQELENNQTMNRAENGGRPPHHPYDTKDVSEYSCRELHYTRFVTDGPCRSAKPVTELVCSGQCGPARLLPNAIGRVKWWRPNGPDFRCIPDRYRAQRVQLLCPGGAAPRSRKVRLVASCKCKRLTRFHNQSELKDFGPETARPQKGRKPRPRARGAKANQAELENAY


Columns and labels:
human sclerostin [1] = molecular target: T1, human sclerostin; experiment: cell-based or functional assay
[2] = molecular target: T3, cynomologous monkey sclerostin (cynomologous monkey); experiment: cell-based or functional assay
human sclerostin [3] = molecular target: T1, human sclerostin; experiment: KinExA 3000 equilibrium binding in solution, 25 C, 1:1 model
Method: (§1) Equilibrium binding studies between an anti-sclerostin antibody and either human, cynomologous (“cyno”) monkey or rat sclerostin are performed on a KinExA 3000 instrument (Sapidyne Instruments Inc.) under KD-controlled conditions. With this technique, a fixed concentration of antibody below its KD is mixed with various concentration of sclerostin protein and allowed to come to equilibrium. The fraction of free, unbound, antibody remaining in solution is probed by briefly exposing this equibrated mixture to sclerostin-coated beads followed by detection with a fluorescently labeled secondary antibody. Typically 2 μM of an anti-sclerostin antibody to be tested is mixed with varying concentrations of human, cyno, or rat sclerostin starting at 2-50 nM and doing three-fold serial dilutions in binding buffer (1× phosphate buffered saline solution, pH 7.4, 0.02% sodium azide and 1 mg/mL bovine serum albumin) containing 2 pM of the antibody to be tested. These solutions are allowed to reach equilibrium over two days at 25° C. The amount of unbound antibody is probed using human sclerostin-coated azlactone beads (Sapidyne Instruments Inc.). These beads are prepared by reacting 50 mg of dry azlactone beads with 50 mcg/ml human sclerostin in a 50 mM sodium carbonate buffer at pH 9.0-9.6 with overnight rotation. Beads are then allowed to settle and the supernatant is replaced with blocking solution (1 M Tris, pH 8.0, plus 10 mg/mL bovine serum albumin) and rotated for one hour. This bead stock is diluted 20-fold into binding buffer and used within three days. A KinExA 3000 instrument equilibrated at room temperature (ca 25° C.) is used for binding studies. Typically 6.25 mL of the equilibrated antibody/sclerostin solution are drawn over a packed human sclerostin-azlactone bead column at 0.25 mL/minute flow rate then rinsed with running buffer (1× phosphate buffered saline solution, pH 7.4 with 0.02% sodium azide). The fraction of free anti-sclerostin antibody bound to these beads is quantified by measuring fluorescence resulting from an injected labeled secondary antibody (Cy5-labeled goat anti-human Fab′2 antibody). Two replicate samples for each condition are analyzed and KD is determined by fitting data to a 1:1 binding model using KinExA Pro software.

rat sclerostin = molecular target: T2, rat sclerostin; experiment: as above
Method: as §1

[4] = molecular target: T3, cynomologous monkey sclerostin; experiment: as above
Method: as §1

Row | IC50 (nM), bone specific alkaline phosphatase assay in C2C12 cells, using human sclerostin (human sclerostin [1]) [nM] | IC50 (nM), bone specific alkaline phosphatase assay in C2C12 cells, using cyno sclerostin [2] [nM] | Kd (human sclerostin [3]) [pM] | Kd (rat sclerostin) [pM] | Kd [4] [pM] | Binder
1 | 25.5 | 31.6 | 0.6 | 0.1 | 1 | humanized anti-sclerostin monoclonal antibody 86 (antibody, human IgG4 S228P, kappa, V domains shown, Full-length humanized antibody; Two heavy and two light chains per claim 3) VH: QVQLVQSGAEVKKPGSSVKVSCKASGYTFTDYFLNWVRQAPGQGLEWMGTIYPYHDGTTYSQKFKGRVTITADKSTSTAYMELSSLRSEDTAVYYCAREEEDGQFDYWGQGTTVTVSS VL: DIQMTQSPSSLSASVGDRVTITCSASQGIQWYLNWYQQKPGKAPKLLIYYTSSLHSGVPSRFSGSGSGTDFTLTISSLQPEDFATYYCQQHSKLPRTFGGGTKVEIKR
2 | 25.1 | 34.4 | 0.3 | 0.4 | 1.4 | humanized anti-sclerostin monoclonal antibody 89 (antibody, human IgG4 S228P, kappa, V domains shown, Full-length humanized antibody; Derived from chimeric parent 789) VH: EVQLVQSGAEVKKPGESLKISCKGSDFEIKDYYIHWVRQMPGKGLEWMGQIDAEDGETEYAPRFQGQVTISADKSISTAYLQWSSLKASDTAMYYCAREGYYYDGRDYWYFDVWGQGTTVTVSS VL: EIVLTQSPATLSLSPGERATLSCSASSSVSYIHWYQQKPGQAPRLLIYSTSELASGIPARFSGSGSGTDFTLTISSLEPEDFAVYYCQQLSHLPLTFGGGTKVEIKR
3 | – | 23.7 | – | 2.2 | 75 | humanized anti-sclerostin monoclonal antibody 88 (antibody, human IgG4 S228P, kappa, V domains shown, Full-length humanized antibody; Derived from chimeric parent 788) VH: QVQLVQSGAEVKKPGASVKVSCKVSGFPIKDTFQHWVRQAPGKGLEWMGWSDPEIGDTEYASKFQGRVTMTEDTSTDTAYMELSSLRSEDTAVYYCATGDTTYKFDFWGQGTTVTVSS VL: DIQMTQSPSSLSASVGDRVTITCKASQDVHTAVAWYQQKPGKAPKLLIYWASTRWTGVPSRFSGSGSGTDFTLTISSLQPEDFATYYCQQYSDYPWTFGGGTKVEIKR
